Our source for the Kd values is publication PMC10400533, “Exploring the G-quadruplex binding and unwinding activity of the bacterial FeS helicase DinG”.

In data set [1] the target is T1, DinG helicase (Escherichia coli, UniProt P27296 1-716).
T1 sequence: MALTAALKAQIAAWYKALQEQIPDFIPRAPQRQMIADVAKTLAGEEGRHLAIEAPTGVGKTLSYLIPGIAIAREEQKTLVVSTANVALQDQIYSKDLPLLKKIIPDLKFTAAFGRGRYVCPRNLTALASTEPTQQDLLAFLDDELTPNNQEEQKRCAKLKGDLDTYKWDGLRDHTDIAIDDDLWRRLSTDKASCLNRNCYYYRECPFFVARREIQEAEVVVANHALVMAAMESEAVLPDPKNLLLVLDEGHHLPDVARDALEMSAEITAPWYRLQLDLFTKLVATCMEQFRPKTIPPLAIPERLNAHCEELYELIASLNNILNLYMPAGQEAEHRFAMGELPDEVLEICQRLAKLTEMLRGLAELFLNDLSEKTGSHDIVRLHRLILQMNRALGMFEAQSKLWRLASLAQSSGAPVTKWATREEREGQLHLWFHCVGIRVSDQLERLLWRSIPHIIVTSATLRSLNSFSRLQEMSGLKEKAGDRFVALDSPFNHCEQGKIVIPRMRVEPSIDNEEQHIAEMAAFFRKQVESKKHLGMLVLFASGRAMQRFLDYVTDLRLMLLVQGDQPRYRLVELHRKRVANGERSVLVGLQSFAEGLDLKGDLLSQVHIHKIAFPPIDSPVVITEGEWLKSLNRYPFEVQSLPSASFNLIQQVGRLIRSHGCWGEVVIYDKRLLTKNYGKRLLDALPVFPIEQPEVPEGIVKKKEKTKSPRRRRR
As to the kind of experiment: SPR; SPR single-cycle kinetics, 25 C, DinG immobilized, DNA 0.062-1 uM; DNA prepared in 10 mM potassium phosphate, 50 mM KCl, pH 7.5; SPR running buffer not in material. Conditions: protein: recombinant, tags: His-tag.

Data set [2] concerns the target T1, DinG helicase. As to the kind of experiment: SPR; Netropsin; SPR single-cycle kinetics, 25 C, DinG immobilized, DNA 0.062-1 uM; DNA prepared in 10 mM potassium phosphate, 50 mM KCl, pH 7.5; SPR running buffer not in material. Conditions: protein: recombinant; tags: His-tag; parallel unimolecular G4.

Consider GGGTGGGTGGGTGGGT (structured_DNA) [T30695], for which the equilibrium dissociation constant (Kd) in the data set with DinG helicase [1] (dimeric parallel G4 of 2 strands) amounted to 163 nM. With GGGGGAGGAGGACGGGGG (structured_DNA) [EC-7], the dissociation constant Kd in the data set with DinG helicase [1] (G4) came out at 56.9 nM.

B1: DNA-fork (D1/D2) (dsDNA)
DNA 1: CTACTACCCCCACCCTCACAACCTTTTTTTTTTTTTT
DNA 2: TTTTTTTTTTTTTTGGTTGTGAGGGTGGGGGTAGTAG
Consider B1, for which the dissociation constant (Kd) in the data set with DinG helicase [1] (fork 1:2, 23 bp duplex, 3' T14 tail on strand 1 and 5' T14 tail on strand 2) amounted to 55.9 nM. On to GGTGGGGGGGCGGGGGAGGCCGGG (structured_DNA) [Zic1], for which the Kd with DinG helicase [1] (parallel G4) amounted to 22.8 nM. In the case of AGGGCGGTGTGGGAATAGGGAA (structured_DNA) [KRAS], the Kd with DinG helicase [1] (parallel unimolecular G4) stood at 46.4 nM. On to TAGGGTTAGGGTTAGGGTTAGGG (structured_DNA) [Tel23], for which, in the data set with DinG helicase [1] (hybrid [3+1] unimolecular G4), the Kd came to 9.4 nM.

Take GGTGGGGAGGGGTAAGGGG (structured_DNA) [EC-6]: the Kd with DinG helicase [1] (G4) amounted to 36.7 nM.

As for GGGCGCGGGAGGAATTGGGCGGG (structured_DNA) [BCL2], the Kd with DinG helicase [1] (hybrid [3+1] unimolecular G4) stood at 21 nM. Regarding AGGGAGGGCGCTGGGAGGAGGG (structured_DNA) [c-KIT1], the Kd is 31.5 nM in the data set with DinG helicase [2] and 28.9 nM with DinG helicase [1] (parallel unimolecular G4). Take GGGGCGGGGTGGGTTGG (structured_DNA) [EC-9]: in the data set with DinG helicase [1] (G4), the Kd came to 34.9 nM. GTGTGTGTGTGTGTGTGTGTGTGTGTGTGT (ssDNA) [G-scramble]: in the data set with DinG helicase [1] (no G4 or other secondary structure), the dissociation constant Kd stood at 126 nM. As to AGGGTGGGTAGGGTGGGT (structured_DNA) [c-MYC], the Kd with DinG helicase [1] (parallel unimolecular G4) was 30.6 nM.
